Test results as given in patent publication US20240245796A1 (PROFOUNDBIO US, published 2024).

Experiments:
[1] = target: T1, human FOLR1 protein, His Tag (ACRO FO1-H52H1) (human, UniProt P15328 25-233); experiment: ELISA, coated hFOLR1-His, supernatant 5x
T1 construct: Bought protein coated on ELISA plates; not shown: His tag

[2] = target: T2, cynomolgus FOLR1 protein, His Tag (ACRO F01-C52H8) (cynomolgus, UniProt A0A2K5U044 25-233); experiment: ELISA, coated cyno FOLR1-His, supernatant 5x
T2 construct: Bought protein coated on ELISA plates; also called Cynomolgus/Rhesus macaque FOLR1, Protein, His Tag; not shown: His tag
T2 sequence (A0A2K5U044 entry or part of it): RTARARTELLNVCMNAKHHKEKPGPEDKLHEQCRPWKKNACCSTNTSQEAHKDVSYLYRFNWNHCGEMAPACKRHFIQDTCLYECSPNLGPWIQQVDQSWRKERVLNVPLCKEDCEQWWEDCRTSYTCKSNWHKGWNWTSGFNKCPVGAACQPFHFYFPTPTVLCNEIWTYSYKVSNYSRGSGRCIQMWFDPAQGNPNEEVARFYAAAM

[3] = target: T1, human FOLR1 protein, His Tag (ACRO …); experiment: ELISA, coated hFOLR1-His, HEK293 supernatant
[4] = target: T2, cynomolgus FOLR1 protein, His Tag (ACRO …); experiment: ELISA, coated cyno FOLR1-His, supernatant 1x
[5] = target: T2, cynomolgus FOLR1 protein, His Tag (ACRO …); experiment: ELISA, coated cyno FOLR1-His, supernatant 25x
[6] = target: T1, human FOLR1 protein, His Tag (ACRO …); experiment: ratio of OD450 on hFOLR1 to OD450 on anti-human IgG Fc
[7] = target: T1, human FOLR1 protein, His Tag (ACRO …); experiment: ELISA, coated hFOLR1-His, supernatant 1x
[8] = target: T1, human FOLR1 protein, His Tag (ACRO …); experiment: ELISA, coated hFOLR1-His, supernatant 25x

T1 sequence (P15328 25-233 limits assumed): as the sequence (A0A2K5U044 entry or part of it) above, with T2I, R4W, K37R, P146A, Y171H counted along it

| OD450 [1] [OD450] | OD450 [2] [OD450] | OD450 [3] [OD450] | OD450 [4] [OD450] | OD450 [5] [OD450] | Target binding/IgG level [6] | OD450 [7] [OD450] | OD450 [8] [OD450] | Binder |
| --- | --- | --- | --- | --- | --- | --- | --- | --- |
| 1.47 | 1.3 | 2.32 | 1.36 | 1.07 | 1.06 | 1.72 | 1.33 | F123 (antibody, V domains shown, Tested as full-length IgG with an IgG1 Fc from HEK293, as supernatant or purified; also called clone F123; anti-FOLR1 antibody F123) VH: EVQLLESGGGVVQPERSLRLSCAASGFTFSSYGMHWVRQAPGKGLEWVAVISYDGSNKYYADSVKGRFTISRANSKNTLYLQMNSLRAEDTAVYYCARPRAYYGAYGSSFDYWGQGTQVTVSS VL: EIVMTQSPSSVSASVGDRVAITCRASQGISSWLAWYQQKPGKAPKLLIYAASSLQSGVPSRFSGSGSGTDFTLTISSLQPEDFATYYCQQSYSTPLTFGGGTKVDIK |
| 1.42 | 1.21 | 2.35 | 1.26 | 0.933 | 1.12 | 1.56 | 1.17 | F112 (antibody, V domains shown, Tested as full-length IgG with an IgG1 Fc from HEK293, as supernatant or purified; also called clone F112; anti-FOLR1 antibody F112) VH: EVQLLESGGGVVQPGRSLRLSCAASGFTFSSYGMHWVRQAPGKGLEWVAVISYDGSNKYYADSVKGRFTISRHNSKNTLYLQMNSLRAEDTAVYYCARPRAYYGAYGSSFDYWGQGTQVTVSS VL: EIVMTQSPSSVSASVGDRVAITCRASQGISSWLAWYQQKPGKAPKLLIYAASSLQSGVPSRFSGSGSGTDFTLTISSLQPEDFATYYCQQSYSTPLTFGGGTKVDIK |
| 1.69 | 1.14 | 2.41 | 1.14 | 1.17 | 1.2 | 1.64 | 1.83 | F138 (antibody, V domains shown, Tested as full-length IgG with an IgG1 Fc, HEK293 supernatant; also called clone F138; anti-FOLR1 antibody F138) VH: EVQLLESGGGVVQPGRSLRLSCAASGFTFSSYGMHWVRQAPGKGLEWVAVISYDGSNKYYADSVKGRFTISTHNSKNTLYLQMNSLRAEDTAVYYCARPRAYYGAYGSSFDYWGQGTQVTVSS VL: EIVMTQSPSSVSASVGDRVAITCRASQGISSWLAWYQQKPGKAPKLLIYAASSLQSGVPSRFSGSGSGTDFTLTISSLQPEDFATYYCQQSYSTPLTFGGGTKVDIK |

Continued, binder first:

| Binder | OD450 [1] [OD450] | OD450 [2] [OD450] | OD450 [3] [OD450] | OD450 [4] [OD450] | OD450 [5] [OD450] | Target binding/IgG level [6] | OD450 [7] [OD450] | OD450 [8] [OD450] |
| --- | --- | --- | --- | --- | --- | --- | --- | --- |
| F40 (antibody, V domains shown, Tested as full-length IgG with an IgG1 Fc from HEK293, as supernatant or purified; also called clone F40; anti-FOLR1 antibody F40) VH: EVQLLESGGGVVQPGRSLRLSCAASGFTFSSYAMHWVRQAPGKGLEWVAVISYDGSNKYYADSVKGRFIISRDNSKNTVYLQMNSLRAEDTAVYYCARPTYVFTYTGSSFDYWGQGTQVTVSS VL: DIQVTQSPSSLSASLGDTVSITCRASRGLTDSVAWYQQKPGQAPKLLIYAASTLQSGVPSRFGGSGSGSYFTLTITSLQPEDVATYYCQNYKSAPWTFGQGTKVEIK | 0.382 | 1.11 | 2.39 | 1.35 | 0.924 | 1.02 | 0.811 | 0.163 |
| F1 (antibody, V domains shown, also called clone F1; anti-FOLR1 antibody F1) VH: EVQLLESGGGVVQPGRSLRLSCAASGFTFSSYGMHWVRQAPGKGLEWVAVISYDGSNKYYADSVKGRFTISRDNSKNTLYLQMNSLRAEDTAVYYCARPRAYYGAYGSSFDYWGQGTQVTVSS VL: EIVMTQSPSSVSASVGDRVAITCRASQGISSWLAWYQQKPGKAPKLLIYAASSLQSGVPSRFSGSGSGTDFTLTISSLQPEDFATYYCQQSYSTPLTFGGGTKVDIK | 1.45 | 1.26 | 2.43 | 1.38 | 0.994 | 1.08 | 1.66 | 1.18 |
| F100 (antibody, V domains shown, Tested as full-length IgG with an IgG1 Fc from HEK293, as supernatant or purified; also called clone F100; anti-FOLR1 antibody F100) VH: EVQLLESGGGVVQPGRSLRLSCAASGFTFSSYGMHWVRQAPGKGLEWVAVISYDGSNKYYADSVKGRFTISRPNSKNTLYLQMNSLRAEDTAVYYCARPRAYYGAYGSSFDYWGQGTQVTVSS VL: EIVMTQSPSSVSASVGDRVAITCRASQGISSWLAWYQQKPGKAPKLLIYAASSLQSGVPSRFSGSGSGTDFTLTISSLQPEDFATYYCQQSYSTPLTFGGGTKVDIK | 1.53 | 1.03 | 2.3 | 1.16 | 0.875 | 1.48 | 1.61 | 1.18 |
| F26 (antibody, V domains shown, Tested as full-length IgG with an IgG1 Fc from HEK293, as supernatant or purified; also called clone F26; anti-FOLR1 antibody F26) VH: EVQLLESGGGVVQRGRSLRLSCAASGFTFSSYGMHWVRQAPGKGLEWVAVISYDGSNKYYADSVKGRFTISRDNSKNTLYLPMNSLRAEDTAVYYCARPRAYYGAYGSSFDYWGQGTQVTVSS VL: EIVMTQSPSSVSASVGDRVAITCRASQGISSWLAWYQQKPGKAPKLLIYAASSLQSGVPSRFSGSGSGTDFTLTISSLQPEDFATYYCQQSYSTPLTFGGGTKVDIK | 1.51 | 1.21 | 2.43 | 1.24 | 1.02 | 1.21 | 1.64 | 1.48 |
| F8 (antibody, V domains shown, Tested as full-length IgG with an IgG1 Fc from HEK293, as supernatant or purified; also called clone F8; anti-FOLR1 antibody F8) VH: EVQLLESGGGVVQHGRSLRLSCAASGFTFSSYGMHWVRQAPGKGLEWVAVISYDGSNKYYADSVKGRFTISRDNSKNTLYLQMNSLRAEDTAVYYCARPRAYYGAYGSSFDYWGQGTQVTVSS VL: EIVMTQSPSSVSASVGDRVAITCRASQGISSWLAWYQQKPGKAPKLLIYAASSLQSGVPSRFSGSGSGTDFTLTISSLQPEDFATYYCQQSYSTPLTFGGGTKVDIK | 1.65 | 1.28 | 2.45 | 0.896 | 1.06 | 1.12 | 1.67 | 1.31 |
| F48 (antibody, V domains shown, Tested as full-length IgG with an IgG1 Fc from HEK293, as supernatant or purified; also called clone F48; anti-FOLR1 antibody F48) VH: EVQLLESGGGVVQPGRSLRLSCAASGFTFSSYGMHWVRQAPGKGLEWVAVISYDGSNKYYADSVKGRFTISRDNSKNTLYLHMNSLRAEDTAVYYCARPRAYYGAYGSSFDYWGQGTQVTVSS VL: EIVMTQSPSSVSASVGDRVAITCRASQGISSWLAWYQQKPGKAPKLLIYAASSLQSGVPSRFSGSGSGTDFTLTISSLQPEDFATYYCQQSYSTPLTFGGGTKVDIK | 1.59 | 1.04 | 2.54 | 1.15 | 0.908 | 1.12 | 1.56 | 1.29 |
